± gives the uncertainty stated by the source.
Experiment: self-splicing fitness, log relative to wild type (ln ratio); higher = more splicing; Tetrahymena group I intron in knt gene, E. coli kanamycin selection, DiMSum; sequences stand for … in CUCUCU…GGAGGGAAAAGUUAUCAGGCAUGCACCUGGUAGCUAGUCUUUAAACCAAUAGAUUGCAUCGGUUUAAAAGGCAAGACCGUCAAAUUGCGGGAAAGGGGUCAACAGCCGUUCAGUACCAAGUCUCAGGGGAAACUUUGAGAUGGCCUUGCAAAGGGUAUGGUAAUAAGCUGACGGACAUGGUCCUAACCACGCAGCCAAGUCCUAAGUCAACAGAUCUUCUGUUGAUAUGGAUGCAGUUCACAGACUAAAUGUCGGUCGGGGAAGAUGUAUUCUUCUCAUAAGAUAUAGUCGGACCUCUCCUUAAUGGGAGCUAGCGGAUGAAGUGAUGCAACACUGGAGCCGCUGGGAACUAAUUUGUAUGCGAAAGUAUAUUGAUUAGUUUUGGAGUACUCGUGGUCG
Summary of the method: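 Pooled colonies went to amplicon sequencing on an Illumina HiSeq 2500 after six replicate transformations. The plates were LB agar with 100 μg/mL carbenicillin, 50 μM IPTG and 0.2% rhamnose, with or without 25 μg/mL kanamycin, incubated overnight at 37°C or 30°C. The E. coli BL21(DE3) library had all eight P1ex-region intron nucleotides randomised, the intron placed in the knt kanamycin-resistance gene on pET-22b(+). DiMSum fitness is the error-weighted combination of replicate fold changes, kanamycin against none, normalised to wild type.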

| Sequence | self-splicing fitness (ln) (30 °C) | self-splicing fitness (ln) (37 °C) |
| --- | --- | --- |
| UAGGAGCAAUAUUACGCGAU | -3.84 ± 0.47 | -2.68 ± 0.34 |
| UAGGAGCAAUAUUACGCGUC | -2.98 ± 0.28 | -2.22 ± 0.29 |
| UAGGAGCAAUAUUACGGCAG | -3.1 ± 0.37 | -0.425 ± 0.25 |
| UAGGAGCAAUAUUACGGGAG | -2.69 ± 0.27 | -2.96 ± 0.36 |
| UAGGAGCAAUAUUACGGGUA | -1.45 ± 0.17 | -2.13 ± 0.21 |
| UAGGAGCAAUAUUACGUGGA | -2.34 ± 0.38 | -1.43 ± 0.22 |
| UAGGAGCAAUAUUACGUUAU | -4.64 ± 0.22 | -2.85 ± 0.15 |
| UAGGAGCAAUAUUACGUUGA | -2.46 ± 0.18 | -1.19 ± 0.17 |
| UAGUAGCAAUAUUACGACCG | -0.133 ± 0.16 | 0.109 ± 0.16 |
| UAGUAGCAAUAUUACGACGG | -1.21 ± 0.16 | -0.306 ± 0.21 |
| UAGUAGCAAUAUUACGAGAU | -2.69 ± 0.13 | -2.32 ± 0.19 |
| UAGUAGCAAUAUUACGAGCA | -1.07 ± 0.12 | -0.0288 ± 0.12 |
| UAGUAGCAAUAUUACGAGGC | -3.45 ± 0.32 | – |
| UAGUAGCAAUAUUACGAGUG | -1.66 ± 0.081 | -0.549 ± 0.083 |
| UAGUAGCAAUAUUACGAUAG | -1.95 ± 0.35 | – |
| UAGUAGCAAUAUUACGAUGC | -4.61 ± 0.34 | -2.56 ± 0.2 |
| UAGUAGCAAUAUUACGAUUA | -0.381 ± 0.099 | 0.0431 ± 0.098 |
| UAGUAGCAAUAUUACGCACC | – | -0.0165 ± 0.38 |
| UAGUAGCAAUAUUACGCCGA | -1.81 ± 0.23 | -0.922 ± 0.2 |
| UAGUAGCAAUAUUACGCCUC | – | -1.66 ± 0.31 |
| UAGUAGCAAUAUUACGCGCA | -0.614 ± 0.1 | 0.274 ± 0.11 |
| UAGUAGCAAUAUUACGCUUU | -2.3 ± 0.25 | -2.18 ± 0.18 |
| UAGUAGCAAUAUUACGGACA | -1.04 ± 0.17 | -0.115 ± 0.19 |
| UAGUAGCAAUAUUACGGACU | -0.0123 ± 0.18 | 0.484 ± 0.15 |
| UAGUAGCAAUAUUACGGAGA | -3.56 ± 0.47 | -3.35 ± 0.35 |

| Sequence | self-splicing fitness (ln) (30 °C) | self-splicing fitness (ln) (37 °C) |
| --- | --- | --- |
| UAGUAGCAAUAUUACGGAUA | -2.7 ± 0.26 | -0.444 ± 0.14 |
| UAGUAGCAAUAUUACGGCAG | -1.01 ± 0.11 | -1.57 ± 0.14 |
| UAGUAGCAAUAUUACGGCCC | -2.09 ± 0.17 | -1.92 ± 0.37 |
| UAGUAGCAAUAUUACGGCUC | -1.01 ± 0.098 | 0.206 ± 0.14 |
| UAGUAGCAAUAUUACGGGCG | -0.694 ± 0.14 | -0.395 ± 0.12 |
| UAGUAGCAAUAUUACGGGGU | -3 ± 0.17 | -2.89 ± 0.22 |
| UAGUAGCAAUAUUACGGUGA | -2.29 ± 0.42 | -1.46 ± 0.24 |
| UAGUAGCAAUAUUACGGUUG | -0.955 ± 0.056 | -0.642 ± 0.07 |
| UAGUAGCAAUAUUACGUAUG | -1.82 ± 0.1 | -0.711 ± 0.12 |
| UAGUAGCAAUAUUACGUCGU | -3.76 ± 0.38 | -2.81 ± 0.21 |
| UAGUAGCAAUAUUACGUGUU | -3.65 ± 0.21 | -1.95 ± 0.15 |
| UAGUAGCAAUAUUACGUUAA | -2.34 ± 0.17 | -2.06 ± 0.17 |
| UAGUAGCAAUAUUACGUUAC | -3.78 ± 0.2 | -2.97 ± 0.23 |
| UAGUAGCAAUAUUACGUUUC | -1.16 ± 0.38 | -1.5 ± 0.41 |
| UAUAAGCAAUAUUACGAACA | -0.73 ± 0.15 | -0.241 ± 0.21 |
| UAUAAGCAAUAUUACGAACC | -2.5 ± 0.41 | -1.51 ± 0.32 |
| UAUAAGCAAUAUUACGAGUU | -2.72 ± 0.15 | -1.11 ± 0.15 |
| UAUAAGCAAUAUUACGAUUG | -1.48 ± 0.11 | -0.744 ± 0.13 |
| UAUAAGCAAUAUUACGCAUA | -1.92 ± 0.12 | -0.585 ± 0.12 |
| UAUAAGCAAUAUUACGCGAG | -1.39 ± 0.12 | -1.02 ± 0.11 |
| UAUAAGCAAUAUUACGCUGA | -1.96 ± 0.22 | -1.53 ± 0.23 |
| UAUAAGCAAUAUUACGGAAC | -4.02 ± 0.42 | -2.94 ± 0.41 |
| UAUAAGCAAUAUUACGGCAU | -0.623 ± 0.077 | -0.223 ± 0.098 |
| UAUAAGCAAUAUUACGGCCA | -0.385 ± 0.15 | 0.169 ± 0.22 |
| UAUAAGCAAUAUUACGGCGC | -1.25 ± 0.11 | -1.35 ± 0.14 |

| Sequence | self-splicing fitness (ln) (30 °C) | self-splicing fitness (ln) (37 °C) |
| --- | --- | --- |
| UAUAAGCAAUAUUACGGGCC | -2.99 ± 0.31 | – |
| UAUAAGCAAUAUUACGGGGC | -2.29 ± 0.45 | – |
| UAUAAGCAAUAUUACGGUCC | -0.922 ± 0.44 | – |
| UAUAAGCAAUAUUACGGUGC | -2.46 ± 0.19 | -3.09 ± 0.3 |
| UAUAAGCAAUAUUACGUACG | -0.621 ± 0.13 | -0.0322 ± 0.15 |
| UAUAAGCAAUAUUACGUAUU | -4.41 ± 0.37 | -1.61 ± 0.18 |
| UAUAAGCAAUAUUACGUCAA | -2.24 ± 0.14 | -0.698 ± 0.11 |
| UAUAAGCAAUAUUACGUCGG | -0.782 ± 0.076 | -0.0864 ± 0.098 |
| UAUAAGCAAUAUUACGUUAA | -2.59 ± 0.15 | -1.5 ± 0.14 |
| UAUAAGCAAUAUUACGUUGU | -4.3 ± 0.2 | -2.55 ± 0.17 |
| UAUCAGCAAUAUUACGAAUG | 0.00149 ± 0.052 | 0.0362 ± 0.07 |
| UAUCAGCAAUAUUACGAGAG | -3.03 ± 0.15 | -0.0372 ± 0.092 |
| UAUCAGCAAUAUUACGCCAA | -1.34 ± 0.19 | -0.351 ± 0.2 |
| UAUCAGCAAUAUUACGCCGA | -1.32 ± 0.12 | -0.34 ± 0.18 |
| UAUCAGCAAUAUUACGCGAU | – | -2.49 ± 0.23 |
| UAUCAGCAAUAUUACGCGUA | -0.493 ± 0.1 | 0.0959 ± 0.12 |
| UAUCAGCAAUAUUACGGCAU | -1.14 ± 0.071 | -0.0824 ± 0.075 |
| UAUCAGCAAUAUUACGGCCA | 0.201 ± 0.12 | 0.167 ± 0.11 |
| UAUCAGCAAUAUUACGUAAA | -0.89 ± 0.068 | 0.233 ± 0.1 |
| UAUCAGCAAUAUUACGUAAC | -1.48 ± 0.14 | -0.246 ± 0.16 |
| UAUCAGCAAUAUUACGUAAU | -1.62 ± 0.073 | -0.784 ± 0.077 |
| UAUCAGCAAUAUUACGUACA | -0.141 ± 0.058 | -0.199 ± 0.07 |
| UAUCAGCAAUAUUACGUCGG | -1.02 ± 0.064 | 0.0416 ± 0.082 |
| UAUCAGCAAUAUUACGUGAC | -0.555 ± 0.1 | -1.45 ± 0.15 |
| UAUCAGCAAUAUUACGUGCC | -4.21 ± 0.34 | -1.95 ± 0.16 |

| Sequence | self-splicing fitness (ln) (30 °C) | self-splicing fitness (ln) (37 °C) |
| --- | --- | --- |
| UAUCAGCAAUAUUACGUGGG | -1.97 ± 0.1 | -1.77 ± 0.13 |
| UAUCAGCAAUAUUACGUGUU | -3.36 ± 0.14 | -2.83 ± 0.12 |
| UAUGAGCAAUAUUACGAAGA | -2.69 ± 0.44 | -1.81 ± 0.2 |
| UAUGAGCAAUAUUACGACCA | -2.25 ± 0.16 | -2.07 ± 0.18 |
| UAUGAGCAAUAUUACGAGGG | -3.93 ± 0.42 | -2.66 ± 0.29 |
| UAUGAGCAAUAUUACGCAUA | – | -2.21 ± 0.42 |
| UAUGAGCAAUAUUACGCCAG | -2.96 ± 0.4 | -1.21 ± 0.38 |
| UAUGAGCAAUAUUACGCCCG | -2.23 ± 0.3 | 0.00889 ± 0.21 |
| UAUGAGCAAUAUUACGCGCA | -1.68 ± 0.12 | -0.965 ± 0.15 |
| UAUGAGCAAUAUUACGCUAG | -3.34 ± 0.41 | – |
| UAUGAGCAAUAUUACGCUGG | -2.71 ± 0.33 | -1.79 ± 0.38 |
| UAUGAGCAAUAUUACGGAUC | -3.84 ± 0.44 | -2.19 ± 0.41 |
| UAUGAGCAAUAUUACGGCCU | -4 ± 0.37 | – |
| UAUGAGCAAUAUUACGGCGA | -0.815 ± 0.17 | -0.45 ± 0.16 |
| UAUGAGCAAUAUUACGGGAG | -1.86 ± 0.19 | -2.95 ± 0.24 |
| UAUGAGCAAUAUUACGGUGG | -1.85 ± 0.22 | -2.72 ± 0.37 |
| UAUGAGCAAUAUUACGGUUA | -1.76 ± 0.15 | 0.43 ± 0.12 |
| UAUGAGCAAUAUUACGUACA | -2.39 ± 0.18 | -1.62 ± 0.23 |
| UAUGAGCAAUAUUACGUACG | -2.35 ± 0.19 | -1.34 ± 0.21 |
| UAUGAGCAAUAUUACGUAGU | -3.67 ± 0.28 | -1.99 ± 0.21 |
| UAUGAGCAAUAUUACGUAUG | -2.35 ± 0.22 | -1.58 ± 0.27 |
| UAUGAGCAAUAUUACGUCAA | – | -2.59 ± 0.38 |
| UAUGAGCAAUAUUACGUCUC | -2.45 ± 0.25 | – |
| UAUGAGCAAUAUUACGUGGA | -3.52 ± 0.35 | -3.47 ± 0.43 |

— the supplement of paper PMC7877785
